From paper PMC8891976 come the findings set out here.

Assay [1] concerns the target ASC (apoptosis-associated speck-like protein containing a CARD) (UniProt Q9ULZ3). Kind of assay: real-time NMR.
Assay [2] deals with ASCb (alternative splicing isoform of ASC) (UniProt Q9ULZ3). In words: real-time NMR.

“ASC (apoptosis-associated speck-like protein containing a CARD) (from UniProt Q9ULZ3 1-195) (natural protein)”: in assay [1], the k1aveCARD (average apparent rate constant k1 of the residues of the CARD) was found to be 0.12 h⁻¹, the k1avePYD (average apparent rate constant k1 of the residues of the PYD) is 0.21 h⁻¹, the k2aveCARD (average apparent rate constant k2 of the residues of the CARD) amounted to 0.02 h⁻¹ and the k2avePYD (average apparent rate constant k2 of the residues of the PYD) was 0.05 h⁻¹.
On to “ASCb (alternative splicing isoform of ASC) (from UniProt Q9ULZ3-2 1-176) (natural protein)”, for which, in assay [2], the k1 (apparent oligomerization rate constant, exponential fit) came out at 0.02 h⁻¹; the k1aveCARD (average apparent rate constant k1 of the residues of the CARD) is 0.0288 h⁻¹; the k1avePYD (average apparent rate constant k1 of the residues of the PYD) worked out at 0.0269 h⁻¹; the k2 (apparent oligomerization rate constant, exponential fit) stood at 0.02 h⁻¹. Moreover, in assay [2], the k2aveCARD (average apparent rate constant k2 of the residues of the CARD) was 0.0288 h⁻¹, the k2avePYD (average apparent rate constant k2 of the residues of the PYD) stood at 0.0269 h⁻¹, the reaction order m of oligomer formation (column of 495 μM) stood at 3.6 and the reaction order m of oligomer formation (column of 704 μM) stood at 3.6.
